Results on 11 molecules are retold here after patent US20180051287, “COMPOSITIONS AND METHODS FOR INHIBITING FACTOR D” (Vitrisa Therapeutics, Inc., published 2018).

Data set [1] deals with T1, complement factor D (fD) (Homo sapiens, UniProt P00746 SEQ:1-228). As to the kind of experiment: FP filter; not above naive library (3.6%); 100 nM DNA, 5 uM fD. Conditions: tags: 6xHis, label: end-labeled. The procedure:
(§1) Specificity of binding was assessed by measuring binding to casein. In all binding reactions, the oligonucleotide concentration was 100 nM, the fD concentration 5 μM and the casein concentration 20 μM.

In data set [2] the target is T1, complement factor D (fD). As to the kind of experiment: inhibition; alternative-pathway hemolysis of rabbit RBC, C1q-depleted human serum, room temperature. Particulars: protein: extract; tags: endogenous fD in C1q-depleted human serum; label: Dy650-N30S.R.OMe 2'-OMe oligo hybridized to 3' constant region (flow assays). Here is the method: Briefly, citrated rabbit blood was centrifuged at 500×g for 5 minutes at room temperature. The top plasma fraction was removed and the volume was replaced with 1× Veronal buffer containing 0.1% gelatin (prepared from 5× Veronal buffer, Lonza #12-624E and 2% gelatin solution, Sigma-Aldrich, G1393). The red blood cells were washed two more times. The washed rabbit red blood cells were diluted in 1× Veronal buffer to a concentration of 2×10⁹ cells/mL (RBCs).
In V-bottom 96-well plates the following reagents were added to a final volume of […] of 1× Veronal buffer with 0.1% gelatin, 100 μL aptamer, 30 μL of C1q-depleted human serum and 20 μL RBCs. This mixture was incubated for 25 minutes at room temperature, then the reaction was stopped by the addition of 5 μL of 500 mM EDTA. The plate was centrifuged for 5 minutes at 500×g at room temperature, then 100 μL of supernatant was removed and the extent of RBC lysis was determined by measuring absorbance at 405 nm.
C1-C3 identified in Example 1, a non-specific control oligo (C8), and one anti-fD Fab antibody fragment as described in Example 1 (AFD) were incubated with C1q-depleted human serum to allow binding to fD present in the serum, then assayed for the ability to inhibit fD-dependent lysis of rabbit red blood cells (FIG. 11). […] IC₅₀ values for C1-C3, C8 and AFD are depicted in Table 14.

Data set [3] concerns the target T1, complement factor D (fD). Description: FP filter; double-filter nitrocellulose binding; 100 nM DNA, 5 uM fD. Particulars: tags: 6xHis; label: end-labeled; potential G4. The procedure: as §1

T1 sequence (P00746 26-253): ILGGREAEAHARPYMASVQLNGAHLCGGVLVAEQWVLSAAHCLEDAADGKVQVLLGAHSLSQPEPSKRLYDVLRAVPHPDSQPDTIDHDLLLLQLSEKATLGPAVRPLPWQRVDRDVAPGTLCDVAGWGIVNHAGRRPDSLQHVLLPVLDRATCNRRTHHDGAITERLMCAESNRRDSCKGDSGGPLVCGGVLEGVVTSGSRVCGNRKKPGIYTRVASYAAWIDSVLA

B1: Aptamer 27 (rank 24) (ssDNA)
DNA: GTGACGACTGACATATCTGCGGGCGTCTGAGCGCATGGATGACCCACCGACAGATTGCGGCGTAGTTGAGTCTGAGTGCT
Take B1: the binding signal with complement factor D (fD) [1] (non-G4) came to 0.7 % bound.

B2: Aptamer 15 (rank 12) (ssDNA)
DNA: GTGACGACTGACATATCTGCTGCTTCCAGCGGTCATGATATGCACTGTCTGAAGCTCGGTCGTAGTTGAGTCTGAGTGCT
On to B2, for which the binding signal in the data set with complement factor D (fD) [1] (non-G4) turned out to be 0.4 % bound.

B3: C1 (Aptamer 1) (ssRNA)
RNA: GGGAGUGUGUACGAGGCAUUAGGCCGCCACCCAAACUGCAGUCCUCGUAAGUCUGCCUGGCGGCUUUGAUACUUGAUCGCCCUAGAAGC
modifications: 2'-F G; 2'-OMe A, C, U
Molecule B3 showed an IC50 in the data set with complement factor D (fD) [2] of 5.1 nM.

B4: Aptamer 5 (rank 2) (ssDNA)
DNA: GTGACGACTGACATATCTGCGTTTGGGGTTGGGGCCTGGGAGTTTGGGGAGCAGAAAGGACGTAGTTGAGTCTGAGTGCT
Regarding B4, in the data set with complement factor D (fD) [3], the binding signal is 63 % bound.

B5: C3 (Aptamer 3) (ssRNA)
RNA: GGGAGUGUGUACGAGGCAUUAGGCCGCCACCUCGUUUGAUUGCGGUUGUUCGGCCGCGGGCGGCUUUGAUACUUGAUCGCCCUAGAAGC
modifications: 2'-F G; 2'-OMe A, C, U
In turn, B5 returned an IC50 in the data set with complement factor D (fD) [2] of 7 nM.

B6: Aptamer 8 (rank 5) (ssDNA)
DNA: GTGACGACTGACATATCTGCTATTTTGGGGCCTGGGTGTTGGGGATTGGGGACTATGTGTCGTAGTTGAGTCTGAGTGCT
Take B6: the binding signal with complement factor D (fD) [3] turned out to be 60.3 % bound.

B7: Aptamer 10 (rank 7) (ssDNA)
DNA: GTGACGACTGACATATCTGCCCTATAGGGGTGTGGGCGAGGGGTGGGTGGTAGGGCGGCTCGTAGTTGAGTCTGAGTGCT
In the data set with complement factor D (fD) [1] (potential G4), B7 displayed a binding signal of 1.9 % bound.

B8: C2 (Aptamer 2) (ssRNA)
RNA: GGGAGUGUGUACGAGGCAUUAGUCCGCCGAAGUCUUUUGGCUCGGUUUUUUCAAGGUCGGCGGCUUUGAUACUUGAUCGCCCUAGAAGC
modifications: 2'-F G; 2'-OMe A, C, U
Consider B8, for which the IC50 in the data set with complement factor D (fD) [2] amounted to 3.3 nM.

B9: Aptamer 12 (rank 9) (ssDNA)
DNA: GTGACGACTGACATATCTGCAAAAGTTAGATTGACATGGTATGCACCGTCTGAGGTTGGTCGTAGTTGAGTCTGAGTGCT
Turning to B9, in the data set with complement factor D (fD) [1] (non-G4), the binding signal came out at 1.6 % bound.

B10: Aptamer 4 (rank 1) (ssDNA)
DNA: GTGACGACTGACATATCTGCTCCGAGGTTATTGGGGTTGGGGCCTGGGCGATTGGGGCCTCGTAGTTGAGTCTGAGTGCT
In the data set with complement factor D (fD) [3], B10 showed a binding signal of 58.3 % bound.

B11: Aptamer 7 (rank 4) (ssDNA)
DNA: GTGACGACTGACATATCTGCGGCGGTTGGGGTCGAAGGGCGAGGGGTGGGAGGTCGCCGTAGTTGAGTCTGAGTGCT
On to B11, for which the binding signal with complement factor D (fD) [1] (potential G4) turned out to be 3.2 % bound.

Broadly, the IC50 is the midpoint of a concentration-inhibition curve. Read a high IC50 as a need for much substance.
